Laboratory results: US20050221400A1

Molecular target: PSCA (prostate stem cell antigen), human, PSCA v.1 (human) (UniProt O43653)
Test: FACS titration on SW780 cells, anti-hIgG-PE, Graphpad Prism sigmoidal dose-response fit

Kd [nM]	Binder
0.23	Ha1-4.37 (antibody, V domains shown) VH: PGALQESGPGLVRPSQTLSLTCTVSGGSISSGGTYYWIWIRQHPGKGLEWIGYIYYSGSTYYNPSLKSRVTISVDTSKNQFSLKLSSVTAADTAVYYCARDGITMVRGISGGMDVWGQGTTVTVSS VL: ASVGDRVTITCRASQSISSHLNWYQQKPGKAPKLLIYAASSLQSGVPSRFSGSGSGTDFTLSISSLQPEDFATYFCQQSYSIPRTFGQGTKVEITR
0.28	Ha1-5.99 (antibody, IgG2, V domains shown) VH: QVHLQQWGAGLLKPSETLSLTCAVYGGSFSGYYWSWIRQPPGKGLEWIGEINHSGSTSYKPSLKSRVTVSVDTSKNQFSLKLSYVTAADTAVYYCARDRGDYGDFLFDYWGQGTLVTVSS VL: SPGERATLSCRASQSIGSTYLAWYQQKPGQAPRLLIYGASSRATGIPERFSGSGSGTDFTLTISGLEPEDFAVFYCQQCGSSPPTFGQGTKVEIKR
